Test results published in patent publication US20250092426, “CAS ENDONUCLEASES AND RELATED METHODS” (Flagship Pioneering Innovations VII, LLC, published 2025).

Molecular target: T1, CasEnd-1 (synthetic construct)
T1 chain: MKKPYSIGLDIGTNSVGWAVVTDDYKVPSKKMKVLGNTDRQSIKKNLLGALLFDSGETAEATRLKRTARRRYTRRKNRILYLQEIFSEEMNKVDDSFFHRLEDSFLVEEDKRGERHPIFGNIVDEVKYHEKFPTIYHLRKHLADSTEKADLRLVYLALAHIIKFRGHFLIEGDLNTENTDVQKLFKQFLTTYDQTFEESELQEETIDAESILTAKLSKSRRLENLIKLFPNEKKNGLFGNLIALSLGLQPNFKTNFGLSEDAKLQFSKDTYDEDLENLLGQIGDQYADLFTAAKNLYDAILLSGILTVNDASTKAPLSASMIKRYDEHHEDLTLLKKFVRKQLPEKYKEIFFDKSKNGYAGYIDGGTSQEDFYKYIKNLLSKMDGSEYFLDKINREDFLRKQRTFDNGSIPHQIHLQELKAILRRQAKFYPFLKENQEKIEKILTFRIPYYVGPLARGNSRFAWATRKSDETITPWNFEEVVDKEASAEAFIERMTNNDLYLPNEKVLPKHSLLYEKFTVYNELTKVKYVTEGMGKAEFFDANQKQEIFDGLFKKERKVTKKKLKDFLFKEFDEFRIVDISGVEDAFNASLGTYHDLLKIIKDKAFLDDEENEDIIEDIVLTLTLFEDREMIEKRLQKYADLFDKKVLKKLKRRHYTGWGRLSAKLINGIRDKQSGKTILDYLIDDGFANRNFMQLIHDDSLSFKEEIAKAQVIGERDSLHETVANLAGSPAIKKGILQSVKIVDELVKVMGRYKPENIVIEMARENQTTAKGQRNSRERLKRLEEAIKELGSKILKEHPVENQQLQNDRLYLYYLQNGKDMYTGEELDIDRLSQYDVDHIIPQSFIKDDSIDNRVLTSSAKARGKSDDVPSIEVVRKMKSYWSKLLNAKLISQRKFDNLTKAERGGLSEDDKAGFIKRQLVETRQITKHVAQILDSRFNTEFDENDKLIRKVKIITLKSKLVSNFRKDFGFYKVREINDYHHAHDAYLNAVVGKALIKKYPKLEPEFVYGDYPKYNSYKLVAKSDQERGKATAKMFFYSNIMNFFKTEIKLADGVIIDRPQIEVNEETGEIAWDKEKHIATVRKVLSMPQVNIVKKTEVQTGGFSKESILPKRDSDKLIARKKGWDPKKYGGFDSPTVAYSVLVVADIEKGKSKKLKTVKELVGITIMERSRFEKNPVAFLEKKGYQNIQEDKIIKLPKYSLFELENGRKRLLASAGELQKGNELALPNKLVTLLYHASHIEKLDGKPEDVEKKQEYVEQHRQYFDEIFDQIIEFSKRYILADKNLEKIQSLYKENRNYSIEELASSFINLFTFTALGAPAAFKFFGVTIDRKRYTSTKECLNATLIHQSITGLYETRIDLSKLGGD
Experiment: cell_activity; +++; HEK293T; PAM not stated
Summary of the method: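 Editing activity was scored as the fraction of GFP+ cells on day 4 by flow cytometry. BFP-expressing HEK293T cells (250,000) received by nucleofection 200 ng plasmid for the RT-Cas fusion protein and 200 ng template RNA plasmid designed to convert BFP to GFP.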

B1: BFP-to-GFP template RNA ; BFP reporter protospacer (ssRNA ; dsDNA)
RNA: GCCGAAGCACUGCACGCCGUGUUUUAGAGCUAGAAAUAGCAAGUUAAAAUAAGGCUAGUCCGUUAUCAACUUGAAAAAGUGGCACCGAGUCGGUGCACCCUGACGUACGGCGUGCAGUGCUU
DNA 1: GCCGAAGCACTGCACGCCGT
DNA 2: ACGGCGTGCAGTGCTTCGGC
In the case of B1, the activity is reported as ≥ 100 % of reference.
